This experiment has as its target PL^pro domain of SARS-CoV-2 nsp3 (E746-T1063) (SARS-CoV-2).

Ends that are not written are not given here.

B1: K193-branched IRF3_(189-197)-ISG15 oligopeptide 4 (peptide)
chain 1: ENPLKRLLV-NH2
chain 2: LSTVFMNLRLRGG
modifications: also: lactam at chain A 5 at chain B 13 to a chain's C-terminus
Molecule B1 gave a PL^pro-catalysed isopeptide amide bond hydrolysis by SPE-MS, time course to ~240 min (0.2 uM PL^pro, 2.0 uM peptide, 50 mM Tris pH 8.0, ambient temperature) of 20%.

These data come from article PMC10933793.
